In patent publication US20030211076A1, “Compositions and methods for treatment of proliferative disorders” (priority 2003, published 2003):

Tests used:
[1] = test system: VEC on Matrigel; experiment: Angiogenic response of Tat-stimulated VEC on Matrigel; assay type: cell-based; conditions: 10 ng/ml Tat, 1 h preincubation and 3 h Tat exposure
Method: VEC grown on Matrigel, a solid gel of basement membrane proteins, rapidly align and form capillary-like structures providing a convenient in vitro model for angiogenesis studies (Albini et al., 1995; Grant et al.). Tat has been reported to enhance this in vitro morphogenesis of VEC consistent with its angiogenic property (Albini et al., 1995).
Cells (3×10^5) were plated on Matrigel-coated dishes. After 1 h incubation, various reagents were added to each culture. […] The following represents FIG. 15 phase-contrast microscopy: A, control; B, 10 ng ml^−1 Tat; C, 10 ng ml^−1 Tat+10 nM LO; D, 10 ng ml^−1 Tat+10 nM LO that was preincubated with 100 μM BAPN for 15 min at 370; E, 100 μM BAPN, alone, and F, 10 nM LO, alone.

[2] = target: T1, lysyl oxidase (LO) (Bos taurus, UniProt P33072); experiment: LO-dependent H2O2 release, horseradish peroxidase-coupled fluorescence assay (substrate potential for LO); assay type: biochemical
T1 construct: per mature LO molecule (32 kD); from tissue
T1 sequence (P33072 170-418): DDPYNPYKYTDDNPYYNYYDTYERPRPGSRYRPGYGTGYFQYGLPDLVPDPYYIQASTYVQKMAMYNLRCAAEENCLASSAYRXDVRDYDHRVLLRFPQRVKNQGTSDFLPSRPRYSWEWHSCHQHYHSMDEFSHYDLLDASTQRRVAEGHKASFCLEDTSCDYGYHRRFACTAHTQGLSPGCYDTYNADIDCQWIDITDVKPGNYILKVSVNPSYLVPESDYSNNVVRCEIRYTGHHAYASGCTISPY
Method: The oxidation of a primary amine substrate by LO yields stoichiometric amounts of the corresponding aldehyde, hydrogen peroxide and ammonia, as shown: RCH2NH2+O2+H2O→RCHO+H2O2+NH3 (Kagan, 1986). To assess the substrate potential of FGF2, LO-dependent H2O2 release was monitored in assays using FGF2 as the sole substrate, using both the optimum temperature for LO activity of 55° C. and the physiological temperature of 37° C. (Trackman et al., 1981).
LO reaction with FGF2 as a substrate was assessed by a horseradish peroxidase-coupled fluorescence assay for H2O2 production. Reaction mixtures contained 0.25 mg of sodium homovanillate(HVA), 40 μg of HRP, and FGF2 at doses as indicated below in 0.05 M sodium borate buffer, pH 8.2, in a final volume of 2 ml. Assays were initiated by the addition of LO to reaction mixtures. H2O2 release was continuously monitored at excitation and emission wavelengths of 315 and 425 nm, respectively, at a constant temperature of 55° C. or 37° C., as specified, in the thermostatted cuvette chamber of an SLM Aminco Bowman Series 2 Luminescence Spectrometer. All activity data were corrected for background rates of H2O2 release determined in complete assay mixtures supplemented with 200 μM BAPN, an irreversible inhibitor of LO. In FIG. 4, solid curves represent the time course of H2O2 release at 55° C. in the reaction of 0.16 μM LO with 0.23 (a), 0.45 (b) and 0.9 (c) μM FGF2, respectively. Dotted curve (d) represents the time course of H2O2 release in the reaction of 0.16 μM LO with 0.9 μM FGF2 at 37° C. The same data were obtained from three separate experiments.
Using the fluorometric assay (Trackman et al., 1981) to monitor LO-dependent H2O2 release in vitro, the substrate potential of other growth factors was also assessed. Major members of the FGF family tested included FGF 1, 4, 5, 6, 7 and EGF (note: All factors are human recombinant forms purchased from R & D Systems, Inc., Minneapolis, Minn.).
A human recombinant disulfide-linked dimer of VEGF165 (MW: 42 kDa)(R & D Systems) as a sole substrate was tested by using the standard in vitro LO catalysis assays as described above for FIG. 4 (Trackman et al., 1981). Curves represent the time course of H2O2 release at 55° C. (a) or 37° C. (b) in the reaction of 0.10 μM LO with 0.45 μM VEGF165. All activity data were corrected for background rates of H2O2 release determined in complete assay mixtures supplemented with the same amounts of LO preincubated with 100 μM BAPN for 15 min at 37° C. The same data were obtained from three separate experiments.
The standard in vitro LO catalysis assays as described above for FIG. 4 (Trackman et al., 1981) using human recombinant PDGF-AB (R & D Systems) as a sole substrate was tested. […] In FIG. 19, curves represent the time course of H2O2 release at 55° C. (a) and 37° C. (b) in the reaction of 0.11 μM LO with 0.46 μM PDGF-AB, respectively. All activity data were corrected for background rates of H2O2 release determined in complete assay mixtures supplemented with the same amounts of LO preincubated with 100 μM BAPN for 15 minutes at 37° C. The same data were obtained from three separate experiments.
To analyze the substrate potential of Tat, the standard in vitro LO catalysis assays as described in FIG. 4 (Trackman et al., 1981) was performed at the optimum temperature of 55° C. and at the physiological temperature of 37° C. A recombinant Tat with 9 lysines in a total of 86 amino acids was used as a sole substrate. FIG. 12A represents a dose and temperature-dependent response. Curves represent the time course of H2O2 release at 55° C. (solid) or 37° C. (dotted) in the reaction of 0.10 μM LO with 0.22 (a and d), 0.43 (b and e) and 0.85 (c and f) μM Tat, respectively. All activity data were corrected for background rates of H2O2 release determined in complete assay mixtures supplemented with the same amounts of LO preincubated with 100 μM BAPN for 15 min at 37° C. […]

[3] = test system: porcine pulmonary arterial vascular endothelial cells (VEC); experiment: Growth of Tat-stimulated vascular endothelial cells (cell counting, phase-contrast microscopy); assay type: cell-based; conditions: 3 days, 5% FBS/M199
Method: Stimulation of cell proliferation of porcine pulmonary arterial vascular endothelial cells (VEC) was tested with LO-oxidized Tat. VEC (2×10^4) were plated and incubated overnight in 35 mm-dishes containing 2 ml 15% FBS/M199 medium, and then refed with 5% FBS/M199 with different treatment regimens as shown in A, B and C of FIG. 13. FIG. 13A represents a dose response of Tat-stimulated cell growth. Media were supplemented with Tat at the indicated doses and cells were incubated for additional 3 days. Cultures were refed once during the incubation period with fresh media supplemented with Tat at indicated doses. Cells were harvested by trypsinization and counted with a hemacytometer. FIG. 13B represents the LO inhibition of Tat-stimulated cell growth. FIG. 13C represents the effects of inactivation of LO by BAPN on Tat-stimulated cell growth. LO: 3 or 10 nM, Tat: 10 ng ml^−1, BAPN: 100 μM. Data represent the means (±sd) of three separate experiments each assessed with triplicate dishes.
Numerical and morphological alterations in Tat-stimulated VEC cells treated with LO were observed under phase-contrast microscopy (25'). Cells were cultured as described in FIG. 13 and treated with additives as indicated below. The following represents FIG. 14 phase contrast microscopy: A, control; B, 10 ng ml^−1Tat; C, 10 ng ml^−1 Tat+3 nM LO; D, 10 ng ml^−1 Tat+3 nM LO that was preincubated with 100 μM BAPN for 15 min at 370; E, 100 μM BAPN, alone, and F, 3 nM LO, alone.

Tat: recombinant HIV-1 Tat with 9 lysines in a total of 86 amino acids
formation of capillary like structures [1]: facilitated the formation of capillary like structures
maximum release of H2O2 per mole of Tat ([2]; 37° C., 0.1 μM LO, 0.22 μM Tat): 4.85 moles of H2O2 per mole of Tat
maximum release of H2O2 per mole of Tat ([2]; 37° C., 0.1 μM LO, 0.43 μM Tat): 4.75 moles of H2O2 per mole of Tat
maximum release of H2O2 per mole of Tat ([2]; 37° C., 0.1 μM LO, 0.85 μM Tat): 4.80 moles of H2O2 per mole of Tat
H2O2 released per mole of Tat, time course ([2]; 37° C., 0.1 μM LO, 20 min): 4.05±0.05 moles of H2O2 released per mole of Tat
H2O2 released per mole of Tat, time course ([2]; 37° C., 0.1 μM LO, 30 min): 4.80±0.04 moles of H2O2 released per mole of Tat
maximum release of H2O2 per mole of Tat, average ([2]; 37° C., 0.1 μM LO, average over 0.22, 0.43 and 0.85 μM Tat): 4.80±0.05 moles of H2O2 per mole of Tat
molar ratio of H2O2 released per mole of Tat at the plateau ([2]; 55° C., 0.1 μM LO, 0.22 μM Tat): 8.42
molar ratio of H2O2 released per mole of Tat at the plateau ([2]; 55° C., 0.1 μM LO, 0.43 μM Tat): 8.88
molar ratio of H2O2 released per mole of Tat at the plateau ([2]; 55° C., 0.1 μM LO, 0.85 μM Tat): 9.31
molar ratio of H2O2 released per mole of Tat, mean±standard deviation ([2]; 55° C., 0.1 μM LO, mean over 0.22, 0.43 and 0.85 μM Tat): 8.87±0.45
substrate of LO (in words) ([2]; factor as sole substrate, LO-dependent H2O2 release in vitro): excellent substrate of LO
dose of maximum stimulation of cell proliferation [3]: 10 ng/mL
